Laboratory results reported in PMC4180279 (Biochemistry, 2014).
Residue numbers refer to the chain shown, from its start.

B1: GST-PQ: GST-tagged residues 1898–2035 of the rat P/Q channel α1 subunit, encompassing IQ motif and CBD (protein, UniProt P54282 1898-2035, looked up, fragment)
chain: KSTDLTVGKIYAAMMIMEYYRQSKAKKLQAMREEQNRTPLMFQRMEPPSPTQEGGPSQNALPSTQLDPGGGLMAQESSMKESPSWVTQRAQEMFQKTGTWSPERGPPIDMPNSQPNSQSVEMREMGTDGYSDSEHYLP
modifications: GST tag
notes: GST-tagged residues 1898–2035 of the rat P/Q channel α1 subunit, encompassing IQ motif and CBD
B2: ^myrPQ-YFP: C-terminally YFP-tagged P/Q 1898–2035 with N-terminal myristoylation consensus sequence (protein, UniProt P54282 1898-2035, looked up, fragment)
chain: B1 chain
modifications: N-terminal myristoylation sequence, C-terminal YFP tag
B3: GST^IM→EE: GST-PQ with IM residues at positions 1913 and 1914 mutated to glutamic acid (protein, UniProt P54282 1898-2035, looked up, variant I1913E M1914E)
chain: B1 chain with I16E, M17E
modifications: GST tag
notes: GST-PQ with IM residues at positions 1913 and 1914 mutated to glutamic acid
B4: GST-CBD: GST-tagged CaM-binding domain, residues 1950–2035 of the rat P/Q channel α1 subunit (protein, UniProt P54282 1950-2035, looked up, fragment)
chain: EGGPSQNALPSTQLDPGGGLMAQESSMKESPSWVTQRAQEMFQKTGTWSPERGPPIDMPNSQPNSQSVEMREMGTDGYSDSEHYLP
modifications: GST tag

Key:
CaM = assay: In vitro pull-down binding of CaM to GST-PQ constructs, Western blot; design: species or system human; conditions: presence or absence of 1 μM free Ca2+
Source text: DNA constructs and molecular biology GST-NCS-1[24] and NCS-1-mCherry[18] plasmids were as previously described. The coding sequence for human CaM was amplified by polymerase chain reaction (PCR) from oligo-dT(15)-primed HeLa cell RNA and reverse-transcribed first-strand cDNA template with the following primer pair (based on GenBank accession number M19311) containing restriction endonuclease sites (underlined) for subcloning into N-terminal GST tag vector pGex6P-1 (Amersham Biosciences): sense (BamHI), 5′-[…]-3′; antisense (XhoI), 5′-[…]-3′. GST-P/Q, encoding residues 1898–2035 of the rat P/Q channel α1 subunit (GenBank accession number NM_012918) was amplified by PCR from a rat brain single-strand cDNA template with the following primer pair containing restriction endonuclease sites (underlined) for subcloning into pGex6P-1: sense (BamHI), 5′-[…]-3′; antisense (XhoI), 5′-[…]-3′. GST-CBD (residues 1950–2035) of the rat P/Q channel α1 subunit was amplified by PCR from the GST-P/Q template using the P/Q reverse primer and a sense primer containing a BamHI site (underlined) for subsequent subcloning into pGex6P-1 (5′-[…]-3′). GST-P/Q^IM→EE was generated by site-directed mutagenesis of the GST-P/Q plasmid using the QuikChange reagents and protocol (Agilent Technologies) and the following primer pair: sense, 5′-[…]-3′; antisense, 5′-[…]-3′.
For the In vitro protein binding assays, 5 μM GST fusion protein (GST-P/Q, GST-P/Q^IM→EE, or GST-CBD) was immobilized onto 30 μL of glutathione-agarose resin (Thermo Scientific) that had been prewashed in binding buffer (BB) [150 mM KCl, 20 mM HEPES (pH 7.4), 10% (v/v) glycerol, 5 mM NTA, 5 mM EGTA, 1 mM DTT, and 0.1% (v/v) NP-40] or BB supplemented with 1 μM free Ca^2+ (BB+Ca^2+) by incubation for 30 min with constant agitation at 4 °C. […]
Nitrocellulose filters were blocked by incubation in a blocking solution [3% (w/v) skim milk powder in PBS] for 1 h at room temperature. […] Densitometry analysis of developed Western blots was performed using Quantity-1 (Bio-Rad). […]

NCS-1 = biological target: T1, NCS-1 (Homo sapiens, UniProt P62166); assay: In vitro pull-down binding of NCS-1 to GST-PQ constructs, Western blot densitometry; conditions: for average NCS-1 bound: 5 μM GST fusion protein, 5 μM NCS-1, 1 h, 4 °C, pH 7.4, normalized: NCS-1 bound to GST-PQ with Ca2+ = 100%, minimal binding without Ca2+ = 0%, mean of n = 3
T1 construct: His tag (TEV-cleavable) (N, cleaved yes); made in house; host or cells: Escherichia coli BL21(DE3)

HeLa cells = assay: Localization of fluorescently tagged proteins in HeLa cells, confocal imaging, puncta scoring; assay type: cell-based; conditions: for cells with puncta: 24 h post-transfection, means ± SEM
Source text: Myristoylated PQ (residues 1898–2035, ^myrPQ-YFP) was constructed as follows. A DNA fragment encoding the myristoylation sequence taken from ref ([25]) was inserted between the XhoI and HindIII sites of pEYFP-N1 (Clontech) to generate p^myrEYFP-N1. PQ^1898–2035 was amplified by PCR from the existing pGex template with the following primer pair containing restriction endonuclease sites (underlined) for subsequent subcloning into p^myrEYFP-N1: sense (HindIII), 5′-ATAT AAGCTTAAGTCCACGGACCTGACAGTG-3′; antisense (SacII), 5′-ATAT CCGCGGGGGGAGGTAGTGTTCGCTGTC-3′. All constructs were verified by dideoxy sequencing (The Sequencing Service, University of Dundee, Dundee, U.K.).
HeLa cells were cultured in DMEM supplemented with 10% (v/v) fetal bovine serum, 1% (v/v) penicillin/streptomycin, and 1% (v/v) nonessential amino acids. All cells were maintained in a humidified 95% air/5% CO2 atmosphere at 37 °C. Cells were plated onto sterile 13 mm round coverslips at a density of 0.25 × 10^6 cells/well. After 24 h, cells were transiently transfected with the indicated expression vectors using GeneJuice transfection reagent (Novagen) according to the manufacturer’s protocol. For single and double transfections, 1 μg of each plasmid was used.
Twenty-four hours post-transfection, cells on coverslips were washed with phosphate-buffered saline [137 mM NaCl, 2.7 mM KCl, 10 mM Na2PO4, and 2 mM NaH2PO4 (pH 7.4)] and then fixed with 4% (v/v) formaldehyde in PBS for 6 min at room temperature. Coverslips were subsequently air-dried and mounted onto microscope slides using Prolong antifade glycerol (Life Technologies). Fixed cells were imaged using a Leica TCS-SP2 confocal system (Leica Microsystems, Heidelberg, Germany) with a pinhole set to 1 Airy unit and a 63× oil immersion objective with a numerical aperture of 1.3. Images were exported as TIFF files and compiled, processed, and analyzed with ImageJ and CorelDraw X6 applications.

[1] = without Ca2+ (5 mM EGTA, 5 mM NTA)

T1 sequence (P62166 whole entry, species assumed, the tested form may be a part): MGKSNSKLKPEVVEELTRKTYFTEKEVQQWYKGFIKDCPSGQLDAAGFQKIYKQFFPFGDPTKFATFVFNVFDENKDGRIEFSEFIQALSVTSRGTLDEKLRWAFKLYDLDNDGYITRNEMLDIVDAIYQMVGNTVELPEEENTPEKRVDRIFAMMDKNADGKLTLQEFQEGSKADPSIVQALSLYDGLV

Row | Molecule | CaM binding (qualitative) (CaM) | NCS-1 binding (qualitative) (NCS-1; presence or absence of 1 μM free Ca2+, Western blot) | average NCS-1 bound (NCS-1; with Ca2+ (1 μM free Ca2+)) | average NCS-1 bound (NCS-1; [1]) | cellular localization (HeLa cells; HeLa cells, without myrPQ-YFP puncta) | colocalization of soluble mCherry with myrPQ-YFP (HeLa cells; control cotransfection with soluble mCherry, data not shown) | cells with puncta (HeLa cells; control myrPQ-YFP + mCherry, three independent experiments) | cells with puncta (HeLa cells; cotransfected NCS-1-mCherry + myrPQ-YFP, four independent experiments)
1 | B1 | Ca^2+-dependent binding | Ca^2+-dependent binding | 100% | 31.2% |  |  |  | 
2 | B2 |  |  |  |  | plasma membrane and/or large cytosolic puncta | no colocalization | 43.6 ± 3% | 39.5 ± 9.2%
3 | B3 | no detectable binding |  |  | 2.8% |  |  |  | 
4 | B4 | no detectable binding |  |  | 4.9% |  |  |  | 
